Reference: the supplement of paper PMC10567573
± gives the standard deviation.

Assay: protein stability index of a GFP-peptide fusion (GPS, HEK-293T) (PSI 1-6); higher = more stable
[1] = treatment: DMSO, c terminus: a fixed tail appended
[2] = treatment: MLN4924 1 uM, 8 h, c terminus: a fixed tail appended
[3] = treatment: DMSO, c terminus: native
[4] = treatment: MLN4924 1 uM, 8 h, c terminus: native
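Also: 24-mer peptide tiles fused after GFP, lentivirally expressed, FACS-sorted into six equal bins by GFP/DsRed ratio, decoded by Illumina sequencing, PSI is the read-weighted mean bin number.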

Sequence | protein stability index [1] | protein stability index [2] | protein stability index [3] | protein stability index [4]
MTELRQRVAHEPVAPPEDKESESE [CDS2] | 5.39 ± 0.26 | 5.44 ± 0.23 | – | –
KVRQLERDNAELEKLIQERSQQQE [KRT34] | 5.17 ± 0.22 | 5.28 ± 0.24 | – | –
ERNEVRNVFKELQIMQGLEHPFLV [STK32A] | 2.71 ± 0.32 | 2.72 ± 0.41 | – | –
TSTPEDKESGQEGVDSMAEEGTSD [SMARCE1] | 5.65 ± 0.25 | 5.51 ± 0.33 | – | –
SLSGVMLTDVSPEPLQALLERASA [PRAME] | 3.61 ± 0.4 | 3.51 ± 0.31 | – | –
TRAILRERICSEEERAKAKHLARQ [CHCHD3] | 3.52 ± 0.33 | 3.76 ± 0.27 | – | –
PSSNEEIRLVDDAFGKICHMVSDG [INTS4] | 4.18 ± 0.23 | 4.5 ± 0.2 | – | –
LGLVGYYIFRVANHQKDLFRRTDG [DHCR7] | 2.45 ± 0.2 | 2.6 ± 0.31 | – | –
GALWGLQAQAVQTEQAVALLRDRT [SCARA5] | 3.07 ± 0.23 | 3.03 ± 0.31 | – | –
YTYRDYGHSSSRDDYPSRGYSDRD [RBMX] | 3.94 ± 0.3 | 4.02 ± 0.26 | – | –
SKLSLLLNDISRKSEGLSGRVLRK [TRIP13] | 2.82 ± 0.28 | 2.82 ± 0.31 | – | –
DAAEEEKYDMEVRVQKTSKELEDM [TNNI2] | 5.45 ± 0.24 | 5.46 ± 0.17 | – | –
FRGFPPEDLMPLAAAYGHALEQYE [P3H4] | 2.8 ± 0.36 | 3.08 ± 0.16 | – | –
ARGPGPEGGGGGSYFSGQGSDTGA [JUNB] | 5.11 ± 0.27 | 4.91 ± 0.18 | – | –
NRSLAEACSEGDVNAVRKLLIEGR [ANKRD17] | 4.01 ± 0.26 | 4.12 ± 0.27 | – | –
RKTQKKVPDVKEMEKSSFTEYIES [TAF7L] | 4.43 ± 0.13 | 4.47 ± 0.27 | – | –
CAVMNVVFITILIIALIALSVGQY [CD69] | 3.04 ± 0.34 | 2.47 ± 0.48 | – | –
ESPDEMELDELLKEISRKRRSIRY [PTPRD] | 3.05 ± 0.24 | 3.4 ± 0.069 | – | –
RRVGGSRILLRMTLGREVMSPLQA [NLN] | 2.15 ± 0.32 | 2.34 ± 0.35 | – | –
MLQSFINYCLLFLIYTVMLAFRSG [SLC35F2] | 2.83 ± 0.4 | 3.42 ± 0.28 | – | –
HGTKNVTNSSSLRLPRQNSDGGQK [WSB1] | 4.96 ± 0.2 | 4.87 ± 0.47 | – | –
RLDKHLYVIGGRNETGYLSSVECY [KLHL14] | 2.28 ± 0.17 | 2.14 ± 0.2 | – | –
SRSENVLSRLSLMAMPNGFHEDGP [PSD2] | 3.73 ± 0.17 | 3.87 ± 0.27 | – | –

Sequence | protein stability index [1] | protein stability index [2] | protein stability index [3] | protein stability index [4]
PGFGCKAVRCASGRCTVRDFIHRH [SDE2] | 2.08 ± 0.43 | 2.14 ± 0.46 | – | –
SSIVWRFVEDSFDPNINPTIGASF [RAB22A] | 2.31 ± 0.57 | 1.71 ± 0.47 | – | –
KCLLYCNGVLEPLYLCPNGARCAT [SLC25A39] | 2.24 ± 0.11 | 2.11 ± 0.27 | – | –
NHMYSCRFSRQCVVDKDKRNQCRY [HNF4A] | 2.61 ± 0.057 | 2.56 ± 0.074 | – | –
TVFCLVVIFALCWFPLHLSRILKK [EDNRA] | 2.41 ± 0.61 | 2.42 ± 1.3 | – | –
EEARRNRLMRDMAQLRLQLEVSQL [SMG5] | 2.25 ± 0.27 | 2.41 ± 0.29 | – | –
VSGINHDVTSGDHGDYFRLLLPGI [CPN1] | 2.46 ± 0.28 | 2.23 ± 0.38 | – | –
PGTLLKTSPSPERSLLLKYARTPT [TRIM14] | 3.27 ± 0.22 | 3.15 ± 0.12 | – | –
TRGWVQTLARMSRRTRGPVERAAA [C6orf223] | 3.23 ± 0.22 | 3.57 ± 0.098 | – | –
SLQTGNHSNGPTDLSMKGGASTTS [NOL4L] | 4.12 ± 0.25 | 4.31 ± 0.27 | – | –
RKGLQHGFFDFETFDVDEYEHYER [CDC14A] | 3.93 ± 0.31 | 3.94 ± 0.41 | – | –
WQLFLAHNIPLETIIPILQHLKYK [INTS3] | 2.83 ± 0.44 | 2.63 ± 0.59 | – | –
LLEEGGLVQVESVNLQVATYSKFQ [UFD1] | 2.85 ± 0.32 | 2.9 ± 0.31 | – | –
SRSPSVEGSLWAVGTESQGRDWRH [PXN] | 4.04 ± 0.11 | 4.05 ± 0.23 | – | –
IYVIGDLDTGTNYDYVREFKRSTG [GAN] | 2.18 ± 0.43 | 2.04 ± 0.43 | – | –
ASSGDLTCGVCALELGSTEVLLDH [PLAGL1] | 2.68 ± 0.4 | 2.82 ± 0.49 | – | –
DQFSALGLDPCLLEDELDKSVQGT [SLC6A17] | 5.18 ± 0.14 | 5.19 ± 0.14 | – | –
LPHLVALTEQYTVTGLMEATQMMV [RHOBTB2] | 2.89 ± 0.67 | 2.86 ± 0.52 | – | –
GGPAQNAPHQQPPAPPSDALLDLH [TFE3] | 5.06 ± 0.29 | 5.29 ± 0.2 | – | –
GEFRTGKTQICHTLAVTCQLPIDR [RAD51] | 2.73 ± 0.52 | 3.02 ± 0.29 | – | –
LPMATVDIKNPEITTNRFYGPQVN [WASL] | 3.4 ± 0.75 | 3.54 ± 0.34 | – | –
AYMGHLDVVALLINHGAEVTCKDK [ANKRD44] | 2.23 ± 0.39 | 2.44 ± 0.19 | – | –
AGGNSSSSAAMQSSCSSTSGGGGG [CCDC6] | 5.08 ± 0.11 | 5.035 ± 0.022 | – | –

Sequence | protein stability index [1] | protein stability index [2] | protein stability index [3] | protein stability index [4]
GKTKKDYQEASNLEQFVTRFLLKE [NECAB1] | 2.97 ± 0.3 | 3.36 ± 0.37 | – | –
LNIVERYDPKENKWTRVASMSTRR [KLHL20] | 3.31 ± 0.084 | 3.39 ± 0.23 | – | –
EDPEENPYGPPPDAVQTSLMDEGA [RBBP5] | 5.56 ± 0.33 | 5.46 ± 0.29 | – | –
LRSFEGLMGTIKSKVSGGKRAWP [TPD52L3] | – | – | 2.94 ± 0.91 | 3.63 ± 0.26
YPEDSSWAAKAPGASSREEPPEEP [SPDEF] | 4.21 ± 0.43 | 4.64 ± 0.51 | – | –
PVHLVDKLPLPIALRSHLKSFSMA [RAB40B] | 2.46 ± 0.2 | 2.27 ± 0.2 | – | –
HHSHSGPEISRIIVDPTTGKRYCR [PLK2] | 4.08 ± 0.16 | 4.32 ± 0.17 | – | –
SFPATLETQEQDVDLVQKYLEKYY [MMP1] | 3.82 ± 0.12 | 4.09 ± 0.2 | – | –
NLQDLCRIKIRQCIGLQNLKLLDE [ASB7] | 3.57 ± 0.24 | 3.56 ± 0.31 | – | –
ELSEAAEAQHGPHSAVARISRAQY [STX11] | 4.53 ± 0.24 | 4.63 ± 0.15 | – | –
GLRKRIATLFFHYIKTPLFNPEVA [IQUB] | 2.12 ± 0.36 | 2.19 ± 0.74 | – | –
SYVRSRKRLREEEAARLFKQIVSA [TRIB1] | 2.53 ± 0.38 | 3.09 ± 0.27 | – | –
QKALYRRLATVHMSRMINKYKRRR [CLPTM1] | 3.7 ± 0.22 | 3.53 ± 0.16 | – | –
MTGTPKTQEGAKDLEVDMNKTEVT [ACSBG2] | 5.64 ± 0.35 | 5.68 ± 0.27 | – | –
LHYAAASDMDRNKTILGNAHDNSE [ANKRD44] | 4.76 ± 0.15 | 4.9 ± 0.044 | – | –
CYVGATVLRGRLYAIAGYDGNSLL [KLHL12] | 3.2 ± 0.34 | 2.57 ± 0.68 | – | –
HECILPFVQVKGNFARLQTCISEL [M1AP] | 2.21 ± 0.11 | 2.21 ± 0.13 | – | –
AAETASLEEQLQGWGEVMLMADKV [ARL6IP1] | 4.53 ± 0.082 | 4.45 ± 0.19 | – | –
MHYCAVPPRGPLGQGAMFRLPTDS [NEUROD6] | 2.97 ± 0.29 | 3.17 ± 0.38 | – | –
LLKCVRESDPSDPNKDMVVQLIDD [SRPK2] | 4.6 ± 0.41 | 4.57 ± 0.079 | – | –
IGCGNFGELRLGKNLYTNEYVAIK [CSNK1G3] | 2.07 ± 0.18 | 2.12 ± 0.44 | – | –
PASYTAPIMSGQGLAGFFASVAMI [SLC29A1] | 2.59 ± 0.58 | 2.44 ± 0.48 | – | –
LGMYQKVTSYCRSATLVGFTVGSV [SLC19A2] | 2.74 ± 0.6 | 2.73 ± 0.41 | – | –

Sequence | protein stability index [1] | protein stability index [2] | protein stability index [3] | protein stability index [4]
MWPPDPDPDPDPEPAGGSRPGPAV [CMTM3] | 5.02 ± 0.062 | 5.124 ± 0.016 | – | –
RSELVEGCGWRCPEHGDRVAELFC [TRIM14] | 2.86 ± 0.12 | 3.04 ± 0.36 | – | –
EPPCEGNTFFCHSNMCINNTLVCN [NETO1] | 2.9 ± 0.24 | 2.85 ± 0.35 | – | –
IIYVASNHFVWRLIPVPMATQIQQ [VPS39] | 3.19 ± 0.35 | 3.09 ± 0.65 | – | –
LLRMCSHGEGKINYYNFVRAFSN [EFHC1] | – | – | 2.32 ± 0.66 | 2.08 ± 0.57
PSCRHEVVLDRHGVYGLQRNLLVE [TRIM55] | 2.32 ± 0.36 | 2.3 ± 0.47 | – | –
NRDEVLDNLLAFVCDIRPEIHENY [ATP6V1G1] | 2.49 ± 0.51 | 2.71 ± 0.37 | – | –
APDGSYFAWSQGHRTVKLVPWSQC [WSB1] | 2.57 ± 0.47 | 2.8 ± 0.42 | – | –
STHELEKKELEENFEKLRLSLQDQ [MTUS2] | 5.43 ± 0.14 | 5.33 ± 0.12 | – | –
HLNRGNHEDHMVNLRYGFTKEVMN [PPEF2] | 2.99 ± 0.3 | 3.16 ± 0.42 | – | –
RTSLSSGATVRSFSINSRLASSLG [CDC14A] | 2.76 ± 0.34 | 2.99 ± 0.48 | – | –
VEMESEEQIAERKRKMVSWEASSL [KMT2E] | 3.67 ± 0.22 | 3.87 ± 0.73 | – | –
SPGELEEDLLLPGACPGADEAGGG [WEE1] | 5.42 ± 0.24 | 5.5 ± 0.12 | – | –
RSDADLVVFLSPLTTFQDQLNRRG [OAS1] | 2.27 ± 0.22 | 2.33 ± 0.31 | – | –
SKNLIYRDVKPENFLIGRQGNKKE [CSNK1G1] | 4.26 ± 0.22 | 4.28 ± 0.18 | – | –
HNCQLHRISFCADDKTDKRIFTFI [GULP1] | 2.61 ± 0.36 | 2.4 ± 0.52 | – | –
LHCWLNAFAEMLRFGDRMFYKDWW [SOAT1] | 2.97 ± 0.3 | 2.77 ± 0.6 | – | –
DIISTVEFNHTGELLATGDKGGRV [PPP2R2B] | 3.16 ± 0.43 | 3.25 ± 0.5 | – | –
MEHQLLCCEVETIRRAYPDANLLN [CCND1] | 2.86 ± 0.24 | 2.87 ± 0.28 | – | –
HLEYRFYKQLGSAGEGLPQVYYFG [CSNK1G1] | 2.2 ± 0.47 | 2.15 ± 0.68 | – | –
